Measurements published in paper doi:10.1101/2023.11.28.568818 (bioRxiv, 2023).

B1: jΔR3-P301L peptide (tau 300-313 with P301L) (peptide)
peptide: VLGGGSVQIVYKPV
B2: jR2R3 peptide (tau residues 295-313) (peptide)
peptide: DNIKHVPGGGSVQIVYKPV
B3: jΔR3 peptide (C-terminal half of jR2R3, tau 300-313) (peptide)
peptide: VPGGGSVQIVYKPV

Molecular target: the molecule itself
Assay: ThT fluorescence + negative stain TEM

Protein	binding result
B1	binds
B2	binds
B3	binds
